These results are taken from paper PMC2927781, “Allosteric Remodelling of the Histone H3 Binding Pocket in the Pygo2 PHD Finger Triggered by Its Binding to the B9L/BCL9 Co-Factor” (Journal of Molecular Biology, 2010).

As a reminder, the Kd is a measure of binding affinity in units of concentration. The low end stands for tighter binding, the high end for weaker binding.

The test deals with T1, 15-mer H3K4me2 histone tail peptide (histone H3 tail dimethylated at lysine 4) (dimethyl-lysine at K4).
T1 construct: histone H3 N-terminal tail, 15-mer peptide, K4 dimethylated; numbers count on: the mature protein (A1 is the N-terminal residue); Surmise: residues 1-15 of the mature histone H3 (A1 to A15); also called dimethylated histone H3 tail peptide
The test is described as follows: ITC; H3K4me2 peptide injected (19 x 2 ul) into the protein; 25 °C; 25 mM Tris pH 8.0, 100 mM NaCl; iTC 200; one-site model. The conditions noted are these: both partners purified. In general terms: ITC needs no label: the signal is the heat of the interaction.

Positions count from the first letter of the chain named. Names may count otherwise.

B1: PHD_(Pygo1)–HD1_(BCL9) complex with Pygo1 W390F (complex)
chain: VYPCGICTNEVNDDQDAILCEASCQKWFHRICTGMTETAYGLLTAEASAVFGCDTCMADKDVYVFSTEMANKAAEAVLKGQVETIVSFHI
Take B1: the equilibrium dissociation constant (Kd) stood at 10.3 µM. This lies in the double-digit micromolar range.

B2: PHD_(Pygo1)–HD1_(BCL9) complex with Pygo1 I357A (complex)
chain: B1 chain with I18A, F51W
For B2, the Kd worked out at 13.5 µM. This Kd and that of the molecule before are within 1.5-fold of each other.
